Km, Vmax and kcat/Km data for two proteins are collected here from paper PMC10755794.

Substrate in the series: O=C(O)C(=O)Cc1ccccc1
The series can be described thus: purified protein. Type of series: biochemical, Saccharomyces cerevisiae. The settings on record: ThDP, Mg2+.

B1: Phenylpyruvate decarboxylase Aro10p (Aro10p^HJ) (Saccharomyces cerevisiae S288C; A377V/K527R) (protein)
chain: MAPVTIEKFVNQEERHLVSNRSATIPFGEYIFKRLLSIDTKSVFGVPGDFNLSLLEYLYSPSVESAGLRWVGTCNELNAAYAADGYSRYSNKIGCLITTYGVGELSALNGIAGSFAENVKVLHIVGVAKSIDSRSSNFSDRNLHHLVPQLHDSNFKGPNHKVYHDMVKDRVACSVAYLEDIETACDQVDNVIRDIYKYSKPGYIFVPADFADMSVTCDNLVNVPRISQQDCIVYPSENQLSDIINKITSWIYSSKTPAILGDVLTDRYGVSNFLNKLICKTGIWNFSTVMGKSVIDESNPTYMGQYNGKEGLKQVYEHFELCDLVLHFGVDINEINNGHYTFTYKPNAKIIQFHPNYIRLVDTRQGNEQMFKGINFVPILKELYKRIDVSKLSLQYDSNVTQYTNETMRLEDPTNGQSSIITQVHLQKTMPKFLNPGDVVVCETGSFQFSVRDFAFPSQLKYISQGFFLSIGMALPAALGVGIAMQDHSNAHINGGNVKEDYKPRLILFEGDGAAQMTIQELSTILRCNIPLEVIIWNNNGYTIERAIMGPTRSYNDVMSWKWTKLFEAFGDFDGKYTNSTLIQCPSKLALKLEELKNSNKRSGIELLEVKLGELDFPEQLKCMVEAAALKRNKK
As a reminder, the Km is the concentration of substrate that gives half-maximal velocity. The term Vmax denotes the rate approached at saturating substrate. By kcat/Km is commonly meant the turnover number divided by the Michaelis constant. Consider B1, for which the Km came to 86.36 ± 6.18 µM, the maximal velocity (Vmax) is 2.11 µmol/min/mg and the kcat/Km came out at 595000 ± 33500 M⁻¹ s⁻¹.

B2: Phenylpyruvate decarboxylase Aro10p (Aro10p^S288C) (Saccharomyces cerevisiae S288C) (protein)
chain: MAPVTIEKFVNQEERHLVSNRSATIPFGEYIFKRLLSIDTKSVFGVPGDFNLSLLEYLYSPSVESAGLRWVGTCNELNAAYAADGYSRYSNKIGCLITTYGVGELSALNGIAGSFAENVKVLHIVGVAKSIDSRSSNFSDRNLHHLVPQLHDSNFKGPNHKVYHDMVKDRVACSVAYLEDIETACDQVDNVIRDIYKYSKPGYIFVPADFADMSVTCDNLVNVPRISQQDCIVYPSENQLSDIINKITSWIYSSKTPAILGDVLTDRYGVSNFLNKLICKTGIWNFSTVMGKSVIDESNPTYMGQYNGKEGLKQVYEHFELCDLVLHFGVDINEINNGHYTFTYKPNAKIIQFHPNYIRLVDTRQGNEQMFKGINFAPILKELYKRIDVSKLSLQYDSNVTQYTNETMRLEDPTNGQSSIITQVHLQKTMPKFLNPGDVVVCETGSFQFSVRDFAFPSQLKYISQGFFLSIGMALPAALGVGIAMQDHSNAHINGGNVKEDYKPRLILFEGDGAAQMTIQELSTILKCNIPLEVIIWNNNGYTIERAIMGPTRSYNDVMSWKWTKLFEAFGDFDGKYTNSTLIQCPSKLALKLEELKNSNKRSGIELLEVKLGELDFPEQLKCMVEAAALKRNKK
Consider B2, for which the Km stood at 102.24 ± 2.15 µM, the Vmax worked out at 2.26 µmol/min/mg and the kcat/Km was 597000 ± 20500 M⁻¹ s⁻¹.
